Experimental findings from the DeepSol protein solubility set are described below.

This data set in a line: soluble on expression in E. coli; label from the status in PepcDB or PDB records.
On to “MNTVLIPPGPGGYGKGLWLPVGSGKKVLSLTGREIHPVAIEIGALTQSEVVNGFADIPPDNDILCVVINCAGSLRCGLYPQKGIPTINVLPTWRAGPLAQFITEENYVSGVTMEQLVLVDTAEAPDGKPETTQEPAPRVISTPPSPRGAEKLVRMVEQTGTAVGHVIALLFAASREAVDVSLRN”, for which the “soluble on expression in E. coli” value was “not soluble”.
In the case of “MNVAAILLAAGKSQRMGLCKQLLQLADRPAVAHCLDTLTAVGLQEIIVVVSPGGDEVAAAVSRYPVVVAVNESDSCDMADSARTGLARLISDPTGVLVALADHPLVRPDTVRALVNRHGEEPDAILIPVHDGAKGHPTLFPAAILQEIGQVATLRDIIGRHRDKVRLVPVADEGVVMDMDVWEDYLAMAERLNPPGLEHHHHHH”, the “soluble on expression in E. coli” value is “soluble”.
“MNVAKNRKEKIAGLFLMCPGSGLDMNFVNTIQPGALQYLMKKGSINYPASKNGYPALLTVECLEEFLNTDISKTSPKVIDIQCPVLTVHGIEDNIVPVENSKKLMQRMASTYKDFHRIPGVDHNFDLDEEVLKRLGQLMDVIRENESKKLKAKI”: the “soluble on expression in E. coli” value is on record as “not soluble”.
The result for “MNVANNNCGQMLSDSSESSEPPRAQAGAVFGKKDKGKKADTKKKNTATEGSKRVKKEKKKDDGEAAKGDPTNKTNMTPAPPQTHPIVEQWVLRALDVGVDKLREEFRGLAKYTRPDMTQVMFNANQSPDIAITKNRYQDVPCQDQSAVKLDQPSPCNYIHANYVGCPMIPEKRFICAQGPLDQTIDEFWWMVIQNKVEQIVMLCKTVEMGKLKCAQYWPAAQGEKLTLKSGCVVENVSGSKPMERDPEIQITMLNLTYSGGQTMSVRHLQWTEWPDRGVPPCKLTSLELLSAIRGSKVPIVVHCSAGIGRTGTIVAIEYILEKIAENKPCPPMPELVKALRDQRAFSIQNDVQYLFIHRVMLNYFLEKYKEKYAALLTAENVAKYDKFIKDYNAAVGQ” reads “not soluble”; that for “MNVIEVEDVSFRYGNSREYSLRHINLEIRKGEFLGIIGPSGSGKSTFCLTLNGLIPHSIAGEFHGNVIVDGLNTREHSVSELSTKVGLVFQNPDSQLFNMTVLEEVAFALENLGIERDEMWRRIRWALKLVRLWDKREEFPPNLSGGEKQRLAIASVLVMKPKVLVLDEPTSQLDPLGREEVLGLIKLLNKEEKITIILVEHNTDFLLEHADRIVVFDKGRIVLEGKPEDVFENVEFLRTIGVKLPTRVKIGYELKKRGLVERAVLTRDEVVEVLKWAYLRGKS”, “soluble”.
The result for “MNVKPLQAKDVAEKVLFGELFILDVRNEADYEDWKIEGKQVSSINKPYFDLLDGVDHIVSELPKDKDVLVVCAKEGSSIFVAEQLTEAGLQNIYYLAGGMKAWSEYVKPIKVGNLKDGGSMYQFNRLGKGCLSYMVISNGEAAVIDAVRTAEAYEEFAKEHGVTIKNVMDTHLHADHISGGRKLAEKVGGTYWLPPKDAEEVVFSYEPLVEGSVITVGGTKIEIDALYSPGHTIGSTSFIVDDSYLLSGDILFVDSIGRPDLAGKAEDWVSDLRNTLYSRYKELSQNLVVLPAHYSKVSEMNESGIVSAKLKDLFANNAGLNIEDEGEFRKVVTENLPPQPNAYEEIRQTNMGKIHPSVDKEREMEIGPNRCAVHE” reads “not soluble”; that for “MNVMTEKKKLVVWVPLPPNSSWRGEGIAQTIENIVRNISPERKIEIVVSSKHAEMLVGLEKSNPNISVLTLGFRGKSTKKTIGYVSLNEVEKDSLWDLVIAKLPIIPAIFRKVGMYVSQLEYLLSLYIYSHLQRRGRFSSNNCRVWLPTPIIPYTHLLGGEKFVSFWDPFVFEYNKEFPLTAEYFVKKLSKHFSNASAIITQSRANKDYLETVMGIESSKINVIYNGSPDYSEFKKQQSNLSFSEVWSKSEFSGASKKAAFEALVNHQLNFSVLWRLLTKNKVSNRKIVLISTQNRPYKGFDQLFVLINELCLRRDNYDFIFTCNVPTKLKERYPSLYERIHEVTRVDNYLHASLYLMSDIVLHPSNVEGGLGAYPQYEASSVGKPSLINTGRHVNEMAEEGFDVDLLSSNFVNTKETVDKIEKLINSEEYMRQNIDAINRLKISWKESASNYENVFFGNENA”, “not soluble”.
Next, “MNVPFWTEEHVRATLPERDAESHKGTYGTALLLAGSDDMPGAALLAGLGAMRSGLGKLVIGTSENVIPLIVPVLPEATYWRDGWKKAADAQLEETYRAIAIGPGLPQTESVQQAVDHVLTADCPVILDAGALAKRTYPKREGPVILTPHPGEFFRMTGVPVNELQKKRAEYAKEWAAQLQTVIVLKGNQTVIAFPDGDCWLNPTGNGALAKGGTGDTLTGMILGMLCCHEDPKHAVLNAVYLHGACAELWTDEHSAHTLLAHELSDILPRVWKRFELEHHHHHH”: “soluble”.
